Measurements as given in patent publication US20230193409A1.

T1: AcrVIA1-3xFLAG
T1 sequence: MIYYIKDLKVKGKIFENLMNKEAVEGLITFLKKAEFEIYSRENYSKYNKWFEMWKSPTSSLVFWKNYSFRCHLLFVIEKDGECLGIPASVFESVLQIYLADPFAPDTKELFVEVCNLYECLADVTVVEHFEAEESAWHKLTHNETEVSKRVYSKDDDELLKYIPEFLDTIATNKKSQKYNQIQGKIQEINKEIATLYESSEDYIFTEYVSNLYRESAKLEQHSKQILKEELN

T2: AcrVIA1
T2 sequence: T1 sequence

T3: AcrVIA1
T3 chain: T1 sequence

T4: AcrVIA1-3xFLAG
T4 chain: T1 sequence

B1: Leptotrichia buccalis Cas13a (protein)
chain: MKVTKVGGISHKKYTSEGRLVKSESEENRTDERLSALLNMRLDMYIKNPSSTETKENQKRIGKLKKFFSNKMVYLKDNTLSLKNGKKENIDREYSETDILESDVRDKKNFAVLKKIYLNENVNSEELEVFRNDIKKKLNKINSLKYSFEKNKANYQKINENNIEKVEGKSKRNIIYDYYRESAKRDAYVSNVKEAFDKLYKEEDIAKLVLEIENLTKLEKYKIREFYHEIIGRKNDKENFAKIIYEEIQNVNNMKELIEKVPDMSELKKSQVFYKYYLDKEELNDKNIKYAFCHFVEIEMSQLLKNYVYKRLSNISNDKIKRIFEYQNLKKLIENKLLNKLDTYVRNCGKYNYYLQDGEIATSDFIARNRQNEAFLRNIIGVSSVAYFSLRNILETENENDITGRMRGKTVKNNKGEEKYVSGEVDKIYNENKKNEVKENLKMFYSYDFNMDNKNEIEDFFANIDEAISSIRHGIVHFNLELEGKDIFAFKNIAPSEISKKMFQNEINEKKLKLKIFRQLNSANVFRYLEKYKILNYLKRTRFEFVNKNIPFVPSFTKLYSRIDDLKNSLGIYWKTPKTNDDNKTKEIIDAQIYLLKNIYYGEFLNYFMSNNGNFFEISKEIIELNKNDKRNLKTGFYKLQKFEDIQEKIPKEYLANIQSLYMINAGNQDEEEKDTYIDFIQKIFLKGFMTYLANNGRLSLIYIGSDEETNTSLAEKKQEFDKFLKKYEQNNNIKIPYEINEFLREIKLGNILKYTERLNMFYLILKLLNHKELTNLKGSLEKYQSANKEEAFSDQLELINLLNLDNNRVTEDFELEADEIGKFLDFNGNKVKDNKELKKFDTNKIYFDGENIIKHRAFYNIKKYGMLNLLEKIADKAGYKISIEELKKYSNKKNEIEKNHKMQENLHRKYARPRKDEKFTDEDYESYKQAIENIEEYTHLKNKVEFNELNLLQGLLLRILHRLVGYTSIWERDLRFRLKGEFPENQYIEEIFNFENKKNVKYKGGQIVEKYIKFYKELHQNDEVKINKYSSANIKVLKQEKKDLYIRNYIAHFNYIPHAEISLLEVLENLRKLLSYDRKLKNAVMKSVVDILKEYGFVATFKIGADKKIGIQTLESEKIVHLKNLKKKKLMTDRNSEELCKLVKIMFEYKMEEKKSEN

Experiments:
[1] = system: T1, AcrVIA1-3xFLAG
[2] = system: T2, AcrVIA1
[3] = molecular target: T3, AcrVIA1
[4] = molecular target: T4, AcrVIA1-3xFLAG

Molecule	cis- and trans-RNA cleavage in vitro (FIG. 2A-B) [1]	cis-RNase activity: cleavage of radiolabeled target RNA in vitro [2]	nonspecific cleavage of labeled non-target RNA, AcrVIA1 added before target RNA ("Acr first" lane) [2]	trans-cleavage of a labeled non-target RNA upon addition of unlabeled protospacer RNA in vitro [2]	cis-RNA cleavage of spc2-target RNA by L. buccalis Cas13a (10 nM) with AcrVIA1 at 400, 100, 10 or 1 nM [3]	cis-RNA cleavage of spc2-target RNA by L. buccalis Cas13a (10 nM) with AcrVIA1-3xFLAG at 400, 100, 10 or 1 nM [4]
L. seeligeri Cas13a-His6	confirmed that both are active in vivo ... and in vitro (FIG. 2A-B)	In the presence of excess AcrVIA1, however, target RNA cleavage was inhibited	if the AcrVIA1 inhibitor is added to the reaction containing Cas13 before adding the target RNA, then AcrVIA1 prevents target RNA binding and no Cas13 activity is observed	AcrVIA1 inhibited Cas13a-mediated trans-cleavage of a labeled non-target RNA	–	–
B1	–	–	–	–	Addition of AcrVIA1 had no effect on protospacer RNA cleavage by purified L. buccalis Cas13a^crRNA	AcrVIA1 does not inhibit Leptotrichia buccalis Cas13a
